This note sets out measurements from US20230340159A1 (published 2023).

The term Kd denotes the free concentration of one partner at which half of the binding sites on the other are occupied at equilibrium, for simple one-to-one binding. Low values mean higher affinity, high ones lower affinity.

Positions count from the first letter of the chain named. A value given as a limit tells only on which side of the number the result lay.

First the molecules themselves.
T1: murine HER2 (murine, UniProt P70424 23-1256)
T1 chain: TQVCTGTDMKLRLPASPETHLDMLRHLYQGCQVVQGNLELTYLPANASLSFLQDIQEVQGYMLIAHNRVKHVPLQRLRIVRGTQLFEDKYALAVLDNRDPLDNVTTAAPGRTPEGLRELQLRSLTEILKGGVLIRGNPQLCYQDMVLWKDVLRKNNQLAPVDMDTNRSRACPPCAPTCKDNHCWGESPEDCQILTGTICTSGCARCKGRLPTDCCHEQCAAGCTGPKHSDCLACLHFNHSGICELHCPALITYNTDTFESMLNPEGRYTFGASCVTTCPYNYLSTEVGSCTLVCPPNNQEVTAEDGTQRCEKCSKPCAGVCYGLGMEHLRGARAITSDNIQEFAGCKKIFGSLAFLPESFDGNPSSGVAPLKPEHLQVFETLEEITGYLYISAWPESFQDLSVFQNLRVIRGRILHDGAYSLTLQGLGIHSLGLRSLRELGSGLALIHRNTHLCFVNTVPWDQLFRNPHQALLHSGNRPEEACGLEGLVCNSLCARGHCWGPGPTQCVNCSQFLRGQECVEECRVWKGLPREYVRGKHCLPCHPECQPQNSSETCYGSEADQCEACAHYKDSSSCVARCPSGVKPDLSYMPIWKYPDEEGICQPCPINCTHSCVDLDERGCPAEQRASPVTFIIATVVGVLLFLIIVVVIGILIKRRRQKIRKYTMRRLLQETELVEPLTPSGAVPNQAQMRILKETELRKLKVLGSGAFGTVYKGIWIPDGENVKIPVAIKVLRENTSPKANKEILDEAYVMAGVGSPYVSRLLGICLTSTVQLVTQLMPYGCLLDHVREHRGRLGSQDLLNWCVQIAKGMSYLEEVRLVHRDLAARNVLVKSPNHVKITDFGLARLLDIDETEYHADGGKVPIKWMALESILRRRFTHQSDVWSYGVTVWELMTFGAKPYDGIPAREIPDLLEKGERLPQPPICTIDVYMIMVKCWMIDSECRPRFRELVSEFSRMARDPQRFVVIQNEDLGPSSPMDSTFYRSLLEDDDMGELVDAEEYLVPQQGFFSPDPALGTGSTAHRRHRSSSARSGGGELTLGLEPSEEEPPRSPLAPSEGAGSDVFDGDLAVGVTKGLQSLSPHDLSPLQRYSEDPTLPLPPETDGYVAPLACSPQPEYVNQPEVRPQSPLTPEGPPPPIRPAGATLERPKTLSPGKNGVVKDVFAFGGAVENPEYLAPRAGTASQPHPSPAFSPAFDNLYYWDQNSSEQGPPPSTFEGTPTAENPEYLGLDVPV

B1: 1159 Pro1045 (antibody, V domains shown)
VH: QVQLQESGGGLVQAGGSLRLSCATSGRTFSSLAMGWFRQAPGKERELVAGISWSGSTTYYADSVKGRFAISRDNAKNTVYLQMNSLKPEDTAVYYCAARTSSIATIGREYDYWGQGTQVTVSS
B2: h1159 Pro1062 (antibody, V domains shown)
VH: B1 VH with Q5L, A14P, A75S, V79L, K87R, P88A, Q118L
B3: h1162 Pro1064 (antibody, V domains shown)
VH: QVQLLESGGGLVQPGGSLRLSCAASGRPFSGNAMGWFRQAPGKEREFVAAISWSGDSTYYADSVKGRFTISRDNSKNTLYLQMNSLRAEDTAVYYCAATRSFYSRTYYTRPSDYNYWGPGTLVTVSS
B4: 1162 Pro1047 (antibody, V domains shown)
VH: B3 VH with L5Q, P14A, S75D, K76E, L79A, R87K, A88P, L122Q
B5: h1156 Pro1061 (antibody, V domains shown)
VH: QVQLLESGGGLVQPGGSLRLSCAASRNIGSNYAVGWFRQAPGKEREPVAALRWTGSIIGYDDSLRGRFTISKDNSKNTLYLQMNSLKPEDTAVYYCAARILDRSSYDYWGQGTLVTVSS
B6: 1156 Pro1044 (antibody, V domains shown)
VH: B5 VH with L5Q, P14A, R19K, L20V, N74D, S75A, L79V, A92G, L114Q
B7: 1055 Pro1036 (protein)
chain: QVQLQESGGGLVQPGGSLRLTCEVSGRAISSYAISWFRQAPGEEREFVAAINWSGTHTNYADSVKGRFTISRDNVKNTVYLQMNSLKPEDTATYFCSRGWSVFDPDYRGQGTQVTVSS
B8: 1059 Pro1038 (protein)
chain: B7 chain with E23A, V24A, N59D, V75A, T93V
B9: 1058 Pro1037 (protein)
chain: B7 chain with P14A, E23A, V24A, N59D, N77R
B10: 1091 Pro1039 (protein)
chain: QVQLQESGGGLVQPGGSLRLSCAASGFTFDDYAMSWVRQAPGKGLEWVSSINWSGTHTDYADSVKGRFTISRDNAKNTLYLQMNSLKSEDSAVYYCVKGWRLTGGYYDSVQGQGTQVTVSS
B11: 1097 Pro1041 (protein)
chain: B10 chain with T28I, S35T, L102H, G104D, G105N, D108A, S109G
B12: 1092 Pro1040 (protein)
chain: B10 chain with P14A, G16A, M34L
B13: 1139 Pro1043 (protein)
chain: QVQLQESGGGLVQPGGSLRLSCAASGFTFDDYAMSWIRQAPGKEMEWVSGINWSGTHTRYADSVKGRFTISRDNAKNTLDLQMNSLISEDTAVYYCARGFAADSRSTRGQGTQVTVSS
B14: h1139 Pro1060 (protein)
chain: B13 chain with Q5V, L11V, Q13R, T78S, D80Y, I87R, S88A, V93L, Q113L
B15: 1160 Pro1046 (antibody, V domains shown)
VH: QVQLQESGGGLVQAGGSLRLSCAASGRTFSNERLGWFRQAPGKERELVAAIRWSGVIIGYADSVRGRFTISRDNAKSTVYLQMNSLRPEDTAVYFCAADRGVYGTWDYWGQGTQVTVSS
B16: 1121 Pro1042 (protein)
chain: QVQLQESGGGLVQAGGSLRLSCAASGFIFSDYAMTWVRQAPGKGLEWVSSINWSGTHTNYADSVKGRFTISRDNAKKTLYLQMNSLKSEDTAVYYCARGWMVVPDSTRGQGTQVTVSS
B17: mouse CA9 (enzyme)
chain: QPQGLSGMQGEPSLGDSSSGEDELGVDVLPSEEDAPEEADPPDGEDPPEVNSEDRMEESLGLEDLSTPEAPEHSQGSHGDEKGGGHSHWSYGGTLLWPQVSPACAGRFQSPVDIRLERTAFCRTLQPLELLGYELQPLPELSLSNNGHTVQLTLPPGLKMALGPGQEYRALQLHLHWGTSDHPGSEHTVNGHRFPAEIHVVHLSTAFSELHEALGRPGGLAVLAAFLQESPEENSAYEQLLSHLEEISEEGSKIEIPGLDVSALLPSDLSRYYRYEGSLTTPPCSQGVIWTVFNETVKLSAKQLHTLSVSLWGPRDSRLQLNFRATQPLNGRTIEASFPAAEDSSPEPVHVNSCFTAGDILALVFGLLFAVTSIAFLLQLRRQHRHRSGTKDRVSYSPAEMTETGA
B18: h456 Pro509 (antibody, V domains shown)
VH: QVQLVESGGGLVQPGGSLRLSCAASGSALIINAMGWYRQAPGKQRELVATVTRSGRTNYADSVKGRFTISRDNSKNTLYLQMNSLRAEDTAVYYCNVALWIADGEYDYWGQGTLVTVSS

The target in the first experiment is T1, murine HER2.
In turn, B1 gave a Kd of 80 nM. This counts as double-digit nanomolar. The same measure, in the same setting: as for B2, the figure is 19100 nM. On the same count and under the same terms, in the case of B3 it was 122 nM; in that of B4, 54 nM.

Another experiment addresses Human Her2 protein (human, UniProt P04626 23-652).
The molecule B1 came in with a Kd of 18 nM. Same read-out and setting: as for B2, the figure is 106 nM; as for B3, 22.9 nM; as for B4, 21.4 nM.

B5: the Kd is less than 0.01 nM. In the case of B6, the Kd stood at 6.6 nM. On the same count and under the same terms, in the case of B7 it was 53.1 nM; in that of B8, 23 nM. Regarding B9, binding was put at a Kd of 8.6 nM.

Turning to B10, the Kd was 6 nM. The Kd values of the last two molecules are within 1.5-fold of each other. On the same count and under the same terms, in the case of B11 it was 2.5 nM; in that of B12, 3.1 nM; in that of B13, 5.6 nM. Molecule B14 registered a Kd of 7.3 nM. The same measure, in the same setting: as for B15, the figure is 56.7 nM; as for B16, 3.8 nM.

The target in a further experiment is 456.
Sequence of 456 (Q8VHB5 32-437): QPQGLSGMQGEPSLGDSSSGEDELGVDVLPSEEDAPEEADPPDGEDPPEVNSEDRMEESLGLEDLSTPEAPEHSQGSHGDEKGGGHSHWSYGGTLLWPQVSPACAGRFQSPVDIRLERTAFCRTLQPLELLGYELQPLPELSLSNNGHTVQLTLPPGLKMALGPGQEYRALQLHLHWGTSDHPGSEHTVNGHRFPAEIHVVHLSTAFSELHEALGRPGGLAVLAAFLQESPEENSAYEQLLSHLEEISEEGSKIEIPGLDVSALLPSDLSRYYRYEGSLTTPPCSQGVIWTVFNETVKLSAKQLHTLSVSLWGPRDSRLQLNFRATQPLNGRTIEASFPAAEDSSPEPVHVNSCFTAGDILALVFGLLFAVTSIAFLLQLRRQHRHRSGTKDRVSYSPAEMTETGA
For B17, the Kd came out at 8.2 nM.

The target in a further experiment is mouse CA9 protein (mouse, UniProt Q8VHB5 32-437).
Sequence of mouse CA9 protein (Q8VHB5 32-437): as above
The molecule B18 gave a Kd of 1.4 nM.
